Experimental findings from publication doi:10.1101/2021.04.27.441718 are described below.

For series [1], the target named is T1, RbpB (Bacteroides thetaiotaomicron VPI-5482, UniProt Q8A6J4 1-100).
T1 sequence: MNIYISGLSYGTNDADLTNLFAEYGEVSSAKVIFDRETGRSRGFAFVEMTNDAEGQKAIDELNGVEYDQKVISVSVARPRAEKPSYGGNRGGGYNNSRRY
In words: EMSA. For orientation: In EMSA bound probe runs differently from free probe, usually more slowly.

Series [2] deals with T1, RbpB. In words: EMSA. The source holds these as a separate data set.

Usually Kd stands for a measure of binding affinity in units of concentration. Low values mean higher affinity, high ones lower affinity.

Turning to UCCUGUGCUCCUGUGCUCCUGUGC (ssRNA) [Motif 9 x3], in the series with RbpB [1], the binding result is on record as “no binding”. As to GUAGGAUAGUAGGAUAGUAGGAUA (ssRNA) [Motif 1 x3], in the series with RbpB [2], the affinity, expressed as Kd, was 5.1 µM.
